These results are taken from patent EP4682166A1 (Guangzhou Enmai Biotechnology Co., Ltd, dated 2026).

Experiment [1] deals with T1, human NMI (N-myc Interacting protein) (human, UniProt Q13287 1-307, limits assumed).
T1 construct: Immunogen and ELISA coating antigen; also called hNMI; antigen 1
T1 sequence (looked up): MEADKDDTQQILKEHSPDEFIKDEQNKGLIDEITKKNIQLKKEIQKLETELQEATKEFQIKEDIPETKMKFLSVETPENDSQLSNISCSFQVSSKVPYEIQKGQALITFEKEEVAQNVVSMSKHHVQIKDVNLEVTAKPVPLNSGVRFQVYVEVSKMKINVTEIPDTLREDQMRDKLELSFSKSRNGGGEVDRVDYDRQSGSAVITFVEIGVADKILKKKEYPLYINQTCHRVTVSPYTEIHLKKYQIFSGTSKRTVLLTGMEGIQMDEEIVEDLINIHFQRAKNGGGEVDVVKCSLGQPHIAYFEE
As to the kind of experiment: I-ELISA, hNMI coated 1 ug/mL; antibody 39.0625 ng/mL. Background: In an ELISA, binding on a coated surface is turned into a signal by an enzyme label.

Experiment [2] concerns the target T1, human NMI (N-myc Interacting protein). As to the kind of experiment: indirect ELISA, human NMI coated; supernatant dilution series.
For experiment [3] the target is unchanged. As to the kind of experiment: I-ELISA, hNMI coated 1 ug/mL; antibody 2500 ng/mL.
Experiment [4] shares this target. As to the kind of experiment: I-ELISA, hNMI coated 1 ug/mL; antibody 9.765625 ng/mL.
Experiment [5] has the same target. Put plainly: I-ELISA, hNMI coated 1 ug/mL; antibody 2.4414063 ng/mL.
For experiment [6] the target is unchanged. As to the kind of experiment: I-ELISA, hNMI coated 1 ug/mL; antibody 19.53125 ng/mL.
For experiment [7] the target is unchanged. Put plainly: I-ELISA, hNMI coated 1 ug/mL; antibody 1.2207031 ng/mL.
Experiment [8] shares this target. Put plainly: I-ELISA, hNMI coated 1 ug/mL; antibody 78.125 ng/mL.
Experiment [9] shares this target. As to the kind of experiment: sandwich ELISA; coating antibody 2.5 ug/mL, detection 94C4-biotin 0.5 ug/mL.
For experiment [10] the target is unchanged. As to the kind of experiment: I-ELISA, hNMI coated 1 ug/mL; antibody 156.25 ng/mL.
The target is the same in experiment [11]. As to the kind of experiment: indirect ELISA, human NMI coated (repeats Table 3).
The target is the same in experiment [12]. As to the kind of experiment: I-ELISA, hNMI coated 1 ug/mL; antibody 1250 ng/mL.
Experiment [13] has the same target. As to the kind of experiment: I-ELISA, hNMI coated 1 ug/mL; antibody 312.5 ng/mL.
Experiment [14] shares this target. Put plainly: I-ELISA, hNMI coated 1 ug/mL; antibody 4.8828125 ng/mL.
Experiment [15] shares this target. As to the kind of experiment: I-ELISA, hNMI coated 1 ug/mL; antibody 625 ng/mL.
Experiment [16] has the same target. As to the kind of experiment: indirect ELISA, human NMI coated; supernatant 1/6561.
Experiment [17] has the same target. Put plainly: indirect ELISA, human NMI coated; supernatant dilution series. This is another data set of the same source.
Experiment [18] shares this target. Put plainly: indirect ELISA, human NMI coated; supernatant 1/243.
The target is the same in experiment [19]. As to the kind of experiment: indirect ELISA, human NMI coated; supernatant 1/27.
Experiment [20] has the same target. As to the kind of experiment: indirect ELISA, human NMI coated; supernatant 1/2187.
For experiment [21] the target is unchanged. Put plainly: indirect ELISA, human NMI coated; supernatant 1/81.
The target is the same in experiment [22]. As to the kind of experiment: indirect ELISA, human NMI coated; supernatant 1/729.
Experiment [23] has the same target. As to the kind of experiment: indirect ELISA, human NMI coated; supernatant 1/3.
The target is the same in experiment [24]. Put plainly: indirect ELISA, human NMI coated; supernatant undiluted.
Experiment [25] shares this target. Put plainly: indirect ELISA, human NMI coated; supernatant 1/59049.
Experiment [26] shares this target. Put plainly: indirect ELISA, human NMI coated; supernatant 1/19683.
For experiment [27] the target is unchanged. Put plainly: indirect ELISA, human NMI coated; supernatant 1/9.
For experiment [28] the target is unchanged. As to the kind of experiment: indirect ELISA, human NMI coated (repeats Table 1).
The target of experiment [29] is T2, human NMI (N-myc Interacting protein), recombinant protein (human, UniProt Q13287 1-307, limits assumed).
T2 construct: Gene ID: 9111; also called hNMI; antigen
T2 sequence (looked up): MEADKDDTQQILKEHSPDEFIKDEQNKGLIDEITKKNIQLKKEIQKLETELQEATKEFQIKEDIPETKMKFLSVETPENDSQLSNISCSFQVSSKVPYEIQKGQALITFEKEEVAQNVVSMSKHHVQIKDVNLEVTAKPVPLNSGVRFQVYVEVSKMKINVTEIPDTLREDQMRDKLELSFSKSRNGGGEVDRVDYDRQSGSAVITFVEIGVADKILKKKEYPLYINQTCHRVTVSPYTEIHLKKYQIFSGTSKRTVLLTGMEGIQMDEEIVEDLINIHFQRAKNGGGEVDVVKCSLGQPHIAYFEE
As to the kind of experiment: indirect ELISA, coated hNMI.

Experiment [30] deals with T2, human NMI (N-myc Interacting protein), …. As to the kind of experiment: sandwich ELISA; detection 98G10-1-biotin; hNMI 100.000 ng/mL.
For experiment [31] the target is unchanged. Put plainly: sandwich ELISA; detection 39B4-1-biotin; hNMI 11.111 ng/mL.
Experiment [32] has the same target. As to the kind of experiment: sandwich ELISA; detection 98G10-1-biotin; hNMI 3.704 ng/mL.
The target is the same in experiment [33]. Put plainly: sandwich ELISA; detection 98G10-1-biotin; hNMI 1.235 ng/mL.
Experiment [34] shares this target. Put plainly: sandwich ELISA; detection 39B4-1-biotin; hNMI 1.235 ng/mL.
For experiment [35] the target is unchanged. As to the kind of experiment: sandwich ELISA; detection 39B4-1-biotin; hNMI 100.000 ng/mL.
For experiment [36] the target is unchanged. Put plainly: sandwich ELISA; detection 39B4-1-biotin; hNMI 33.333 ng/mL.
For experiment [37] the target is unchanged. Put plainly: sandwich ELISA; detection 98G10-1-biotin; hNMI 33.333 ng/mL.
The target is the same in experiment [38]. As to the kind of experiment: sandwich ELISA; detection 98G10-1-biotin; hNMI 11.111 ng/mL.
The target is the same in experiment [39]. As to the kind of experiment: sandwich ELISA; detection 39B4-1-biotin; hNMI 3.704 ng/mL.

B1: B-8 (antibody, V domains shown)
VH: QSLEESGGDLVKPGASLTLTCTASGFSFSSSYYMCWVRQAPGKGLEWIACIYAGSSGSTYYASWAKGRFTISKTSSTTVTLQMTSLTAADTATYFCAREYSYDDYGDFWGFNLWGPGTLVTVSS
VL: ALVMTQTPSSVSAAVGGTVTINCQASQNIYTNLAWYQQKPGQPPKLLIYGASNLESGVPSRFKGSGSGTEYTLTISDLECDDAATYYCQSSLYSRIADRANAFGGGTEVVVK
notes: Rabbit monoclonal antibody; also called B8-1; B-8-biotin (biotin-labelled form)
B1: the OD450 in experiment [1] was determined as 0.838 OD450; in experiment [3], 1.85 OD450; in [4], 0.243 OD450; in experiment [5] it was 0.099 OD450; in experiment [6], 0.502 OD450; in experiment [7], 0.084 OD450. Moreover, the OD450 in experiment [8] was 1.26 OD450; in [10], 1.36 OD450; in experiment [12], 1.68 OD450; in experiment [13], 1.67 OD450; in [14], 0.143 OD450; in [15], 1.62 OD450. For the same molecule, the EC50 in [2] and in [11] was 2.51 ng/mL each time. For the same molecule, the “detection limit (sensitivity)” value in experiment [9] came out at 60 pg/mL.

B2: 39B4 (antibody, V domains shown)
VH: QEQLVESGGGLVQPEGSLTLTCTASGFSFSSSYWICWVRQAPGKGLEWIACIYAGTSGSTYYASWAKGRFTISKTSSTTVDLQMNSLTAADTATYFCARAGYYTYGAGVYIYPSSFKLWGPGTLVTVSS
VL: DVVMTQTPASVEAAVGGTVTIKCQASESIGNALAWYQQKPGQPPKLLIYSASNLASGVPSRFSGSGSGTQFTLTISDLECADAATYYCQSYYYSSSSITFGGGTEVVVK
notes: Rabbit monoclonal antibody; also called 39B4-1; 39B4-1-biotin (biotin-labelled form)
With B2, the OD450 amounted to 0.828 OD450 in experiment [1]; 2.25 OD450 in experiment [3]; 0.296 OD450 in experiment [4]; 0.099 OD450 in experiment [5]; 0.529 OD450 in experiment [6]; 0.077 OD450 in experiment [7]. Further, the OD450 in experiment [8] turned out to be 1.43 OD450; in experiment [10] it was 1.8 OD450; in experiment [12], 2.13 OD450; in [13], 1.99 OD450; in experiment [14], 0.159 OD450; in [15], 1.99 OD450. Moreover, the “ELISA OD” value in experiment [16] came out at 1.61 OD; in experiment [18], 3.1 OD; in experiment [19], 3.35 OD; in experiment [20], 2.32 OD; in experiment [21], 3.28 OD; in [22] it was 2.76 OD. Further, the “ELISA OD” value in experiment [23] was found to be 3.43 OD; in experiment [24], 3.4 OD; in experiment [25], 0.415 OD; in [26], 0.758 OD; in [27], 3.41 OD. Further, the EC50 in [17] and in experiment [28] was 0.567 ng/mL throughout. In experiment [9], the “detection limit (sensitivity)” value turned out to be 40 pg/mL.

B3: monoclonal antibody 94C4 (antibody, V domains shown)
VH: QSLEESGGGLVQPEGSLTLTCKASGFDFSSNAMCWVRQAPGKGLEWIACISSASSGSSGSTYYASWAKGRFTISKTSSTTVTLQMTSLTAADMATYFCARDGYDLWGPGTLVTVSS
VL: QVLTQTPSSVSAAVGGTVTISCQSSPSVYNNYLSWFQQKPGQSPKLLIYRVSTLASGVPSRFSGSGSGTQFTLTISGVQCDDAATYYCAGGYDSASDTYVFGGGTEVVVK
notes: Rabbit monoclonal antibody; Used biotin-labelled as detection antibody (94C4-1-biotin); also called 94C4-1
Turning to B3, the concentration for a half-maximal effect (EC50) in experiment [29] worked out at 32.7 ng/mL. Also, the OD450 in [30] worked out at 3.1 OD450; in experiment [31], 1.67 OD450; in experiment [32], 0.627 OD450; in experiment [33] it was 0.292 OD450; in experiment [34] it was 0.372 OD450; in [35] it was 3.22 OD450. Besides, the OD450 in experiment [36] worked out at 2.75 OD450; in [37], 2.51 OD450; in experiment [38] it was 1.36 OD450; in experiment [39] it was 0.735 OD450.

Usually EC50 stands for the concentration giving half of the maximal effect.
